From patent publication US20140193400A1 (ESBATECH AN ALCON BIOMEDICAL RESEARCH UNIT, published 2014)
Read-outs that look alike come from different tables or passages of the source.

Experiments:
[1] = biological target: T1, recombinant human TNFalpha (human, UniProt P01375 77-233); test: cell-based or functional assay
[2] = biological target: T1, recombinant human TNFalpha; test: cell-based or functional assay; remark: listed apart in the source
[3] = biological target: T1, recombinant human TNFalpha; test: cell-based or functional assay; remark: listed apart in the source
[4] = biological target: T1, recombinant human TNFalpha; test: cell-based or functional assay; remark: listed apart in the source
[5] = biological target: T2, Human TNFa N-his trimers (His-tagged TNF, produced at ESBATech) (human, UniProt P01375 77-233); test: SPR (BIAcore T100), His-tagged human TNF captured on NTA chip, scFv as analyte
T2 construct: Captured as trimers on a Ni-NTA sensor chip by the N-terminal His tags in the Biacore assay of the general methods; also called human TNFα; human TNF alpha; not shown: N-terminal His tag
T2 sequence (P01375 77-233 limits assumed): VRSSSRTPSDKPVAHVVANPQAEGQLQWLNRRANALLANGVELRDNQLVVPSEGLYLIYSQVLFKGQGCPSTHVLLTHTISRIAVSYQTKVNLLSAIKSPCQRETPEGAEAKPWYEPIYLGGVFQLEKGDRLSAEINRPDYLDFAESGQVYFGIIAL
Experimental: (§1) For binding affinity measurements at pH5 and pH 7.4 (data not shown), surface Plasmon resonance measurements with BIAcore™-T 100 were employed using a NTA sensor chip and His-tagged TNF (produced at ESBATech). The surface of the NTA sensor chip consists of a carboxymethylated dextran matrix pre-immobilized with nitrilotriacetic acid (NTA) for capture of histidine tagged molecules via Ni2+NTA chelation. Human TNFa N-his trimers (5 nM) are captured by the nickel via their N-terminal his-tags and ESBA105 (analyte) is injected at several concentrations ranging from 30 nM to 0.014 nM in 3 fold serial dilution steps. At the regeneration step, the complex formed by nickel, ligand and analyte is washed away. This allows the use of the same regeneration conditions for different samples. The response signal is generated by surface Plasmon resonance (SPR) technology and measured in resonance units (RU). All the measurements are performed at 25° C. Sensorgrams were generated for each anti-TNF scFv sample after in-line reference cell correction followed by buffer sample subtraction. The apparent dissociation rate constant (kd), the apparent association rate constant (kₐ) and the apparent dissociation equilibrium constant (KD) were calculated using one-to-one Langmuir binding model with BIAcore T100 evaluation Software version 1.1.

[6] = biological target: T2, Human TNFa N-his trimers (His-tagged …); test: SPR (BIAcore), His-tagged human TNF captured on NTA chip, scFv as analyte; units taken from paragraph 184
Experimental: as §1

[7] = biological target: T1, recombinant human TNFalpha; test: cell-based or functional assay; remark: listed apart in the source
[8] = biological target: T1, recombinant human TNFalpha; test: secretion ELISA on TNFα, bacterial culture supernatant not normalised for single-chain antibody content

T1 sequence (P01375 77-233 limits assumed): as above

Row | Molecule | L929* [EC50-E105/EC50-X], potency relative to ESBA105 [3] | Kd [6] | koff [6] | kon [6] | also measured
1 | Adalimumab (antibody) |  |  |  |  | IC50, block of cytotoxic activity (human Kym-1 cells, 10 pg/ml TNF) [1]: 66.2 ng/mL; IC50, block of cytotoxic activity (murine L929 cells, 1000 pg/ml TNF) [1]: 8.45 ng/mL; IC50, block of cytotoxic activity (murine L929 cells, 1000 pg/ml TNF) [2]: 8.46 ng/mL
2 | EP43_max (scFv, scFv NH2-VL-(GGGGS)4-VH-COOH; also called 676) scFv: EIVMTQSPSTLSASVGDRVIIKCQASQSISDWLAWYQQKPGKAPKLLIYGASRLASGFPSRFSGSGSGAEFTLTISGLEPADFATYYCQQGWSDSYVDNLFGQGTKLTVLGGGGGSGGGGSGGGGSGGGGSEVQLVESGGGLVQPGGSLRLSCTVSGFSLSSGAMSWVRQAPGKGLEWVGVIISSGATYYASWAKGRFTISKDTSKNTVYLQMNSLRAEDTAVYYCARGGPDDSNSMGTFDPWGQGTLVTVSS | 6.4 ratio EC50 ESBA105/EC50 X (mass units, ng/ml) | 249 pM | 5.68e-05 s⁻¹ | 228000 M⁻¹ s⁻¹ | L929* [EC50-E105/EC50-X], potency relative to ESBA105 [4]: 6.4 ratio EC50 ESBA105/EC50 X (mass units, ng/ml); Kd [5]: 251 pM; koff [5]: 4.48e-05 s⁻¹; kon [5]: 178000 M⁻¹ s⁻¹; EC50, L929 potency assay [7]: 1 ng/mL
3 | 34min (scFv, also called EP34min; EP34_min) scFv (VL-linker-VH): EIVMTQSPSTLSASVGDRVIITCQSSQSVYGNIWMAWYQQKPGKAPKLLIYQASKLASGVPSRFSGSGSGAEFTLTISSLQPDDFATYYCQGNFNTGDRYAFGQGTKLTVLGGGGGSGGGGSGGGGSGGGGSEVQLVESGGGLVQPGGSLRLSCAASGFTISRSYWICWVRQAPGKGLEWVSCIYGDNDITPLYANWAKGRFTISRDNSKNTLYLQMNSLRAEDTAVYYCAKLGYADYAYDLWGQGTLVTVSS |  |  |  |  | binding result [8]: binds

More lines, main results first:

Row | L929* [EC50-E105/EC50-X], potency relative to ESBA105 [3] | Kd [6] | koff [6] | kon [6] | Molecule | also measured
4 | 1.6 ratio EC50 ESBA105/EC50 X (mass units, ng/ml) | 868 pM | 0.000198 s⁻¹ | 228000 M⁻¹ s⁻¹ | EP43_minmax (scFv, Min graft VL with max graft VH; also called 958) scFv: EIVMTQSPSTLSASVGDRVIITCQASQSISDWLAWYQQKPGKAPKLLIYGASRLASGVPSRFSGSGSGAEFTLTISSLQPDDFATYYCQQGWSDSYVDNLFGQGTKLTVLGGGGGSGGGGSGGGGSGGGGSEVQLVESGGGLVQPGGSLRLSCTVSGFSLSSGAMSWVRQAPGKGLEWVGVIISSGATYYASWAKGRFTISKDTSKNTVYLQMNSLRAEDTAVYYCARGGPDDSNSMGTFDPWGQGTLVTVSS | 
5 | 6.7 ratio EC50 ESBA105/EC50 X (mass units, ng/ml) | 116 pM | 2.73e-05 s⁻¹ | 235000 M⁻¹ s⁻¹ | EP43_maxDHP (scFv) scFv: EIVMTQSPSTLSASVGDRVIIKCQASQSISDWLAWYQQKPGKAPKLLIYGASRLASGFPSRFSGSGSGAEFTLTISGLEPADFATYYCQQGWSDSYVDNLFGQGTKLTVLGGGGGSGGGGSGGGGSGGGGSEVQLVESGGGSVQPGGSLRLSCTVSGFSLSSGAMSWVRQAPGKGLEWVGVIISSGATYYASWAKGRFTISKDTSKNTVYLQMNSLRAEDTATYYCARGGPDDSNSMGTFDPWGQGTSVTVSS | 
